Source: patent publication US20250002599A1 (NOVAROCK BIOTHERAPEUTICS, published 2025)
Like-named read-outs stand apart in the source and are kept apart here.

Key:
[1] = target: T1, human CD137 expressed on the cell surface of HEK293T cells (human, UniProt Q07011 24-255); assay: immunofluorescence imaging on HEK293T cells expressing human CD137
T1 construct: Stably or transiently transfected HEK293T cells; also on HEK293T and Jurkat T NFκB reporter cells; also called human CD137 (WT); 4-1BB

[2] = target: T2, cynomolgus CD137 expressed on the cell surface of HEK293T cells (cynomolgus, UniProt Q07011 24-255 (human entry)); assay: immunofluorescence imaging on HEK293T cells expressing cynomolgus CD137
T2 construct: also called cyno CD137
T2 chain: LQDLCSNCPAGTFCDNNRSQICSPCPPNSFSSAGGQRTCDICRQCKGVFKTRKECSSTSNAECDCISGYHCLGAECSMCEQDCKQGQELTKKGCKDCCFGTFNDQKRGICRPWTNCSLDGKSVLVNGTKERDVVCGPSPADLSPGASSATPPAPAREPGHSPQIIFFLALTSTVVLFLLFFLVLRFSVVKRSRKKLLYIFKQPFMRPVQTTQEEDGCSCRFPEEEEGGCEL

[3] = target: T3, mouse CD137 expressed on the cell surface of HEK293T cells (mouse, UniProt P20334 24-256); assay: immunofluorescence imaging binding assay on mouse CD137-expressing HEK293T cells
T3 construct: whole, on cells; also called murine CD137; mouse 4-1BB

[4] = target: T4, human CD137 (Sino Biological, cat #10041-H08H) (human, UniProt Q07011 24-186); assay: SPR (Biacore3000), antibody captured by anti-human IgG on CM5, CD137 as analyte, 1:1 binding with mass transfer
T4 construct: Bought protein used as the analyte in SPR; also called CD137 antigen in Biacore

[5] = target: T5, human PD-L1 expressed on the cell surface (HEK293T-PD-L1 cells; Promega artificial APC CHO-K1 cells) (human, UniProt Q9NZQ7 19-290); assay: cell-based or functional assay
[6] = target: T6, human recombinant PD-L1 protein (Acro Biosystems, cat #: PD1-H5229) (human, UniProt Q9NZQ7 19-238); assay: ELISA, PD-L1 protein coated on the plate, OD 405
T6 construct: Bought protein; also called human PD-L1; recombinant human PD-L1

[7] = target: T7, cynomolgus PD-L1 protein (Acro Biosystems, cat #: PD1-C52H4) (cynomolgus, UniProt Q9NZQ7 19-238 (human entry)); assay: ELISA, PD-L1 protein coated on the plate, OD 405
T7 construct: Bought protein; also called cyno PD-L1

[8] = target: T8, mouse PD-L1 protein (Acro Biosystems, cat #: PD1-M5220) (mouse, UniProt Q9EP73 19-238); assay: ELISA, PD-L1 protein coated on the plate, OD 405
T8 construct: Bought protein; also called murine PD-L1

[9] = target: T1, human CD137 expressed on the cell …; assay: immunofluorescence imaging binding assay on human CD137-expressing HEK293T cells
[10] = target: T3, mouse CD137 expressed on the cell …; assay: immunofluorescence imaging binding assay on mouse CD137-expressing HEK293T cells; remark: listed apart in the source
[11] = target: T5, human PD-L1 expressed on the cell …; assay: immunofluorescence imaging on HEK293T-PD-L1 cells
[12] = target: T6, human recombinant PD-L1 protein (Acro …); assay: ELISA, PD-L1 protein coated on the plate, OD 405; remark: listed apart in the source
[13] = target: T7, cynomolgus PD-L1 protein (Acro …); assay: ELISA, PD-L1 protein coated on the plate, OD 405; remark: listed apart in the source
[14] = target: T8, mouse PD-L1 protein (Acro Biosystems, …); assay: ELISA, PD-L1 protein coated on the plate, OD 405; remark: listed apart in the source
[15] = target: T6, human recombinant PD-L1 protein (Acro …); assay: SPR (Biacore3000), antibody captured by anti-human IgG on CM5, PD-L1 as analyte, 1:1 binding with mass transfer
[16] = target: T3, mouse CD137 expressed on the cell …; assay: immunofluorescence imaging binding assay on mouse CD137-expressing HEK293T cells; remark: listed apart in the source

T3 sequence (P20334 24-256): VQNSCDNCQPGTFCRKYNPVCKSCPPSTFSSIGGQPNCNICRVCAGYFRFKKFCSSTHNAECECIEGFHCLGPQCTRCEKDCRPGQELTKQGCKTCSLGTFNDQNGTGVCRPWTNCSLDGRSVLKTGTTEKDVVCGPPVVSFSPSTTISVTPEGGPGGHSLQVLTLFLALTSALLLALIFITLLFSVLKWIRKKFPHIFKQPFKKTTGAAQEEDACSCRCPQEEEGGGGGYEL
T4 sequence (Q07011 24-186 limits assumed): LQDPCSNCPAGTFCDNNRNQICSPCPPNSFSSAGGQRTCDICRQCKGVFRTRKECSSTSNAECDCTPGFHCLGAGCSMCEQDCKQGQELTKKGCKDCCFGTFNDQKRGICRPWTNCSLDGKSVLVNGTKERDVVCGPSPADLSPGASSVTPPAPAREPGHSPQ
T5 sequence (Q9NZQ7 19-290 limits assumed): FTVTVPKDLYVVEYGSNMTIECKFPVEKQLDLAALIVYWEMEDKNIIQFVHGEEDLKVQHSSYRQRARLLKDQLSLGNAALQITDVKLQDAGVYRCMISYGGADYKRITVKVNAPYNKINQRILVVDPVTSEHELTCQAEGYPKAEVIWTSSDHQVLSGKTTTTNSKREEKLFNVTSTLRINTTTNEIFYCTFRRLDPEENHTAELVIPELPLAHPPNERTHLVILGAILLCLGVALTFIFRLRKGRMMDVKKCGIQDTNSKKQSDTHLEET
T6 sequence (Q9NZQ7 19-238 limits assumed): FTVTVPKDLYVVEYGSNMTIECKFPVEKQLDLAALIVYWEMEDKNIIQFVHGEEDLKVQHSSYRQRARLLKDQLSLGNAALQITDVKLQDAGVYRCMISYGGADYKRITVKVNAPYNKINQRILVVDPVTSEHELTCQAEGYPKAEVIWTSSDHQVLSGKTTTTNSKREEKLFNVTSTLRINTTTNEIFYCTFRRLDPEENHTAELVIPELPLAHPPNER
T8 sequence (Q9EP73 19-238 limits assumed): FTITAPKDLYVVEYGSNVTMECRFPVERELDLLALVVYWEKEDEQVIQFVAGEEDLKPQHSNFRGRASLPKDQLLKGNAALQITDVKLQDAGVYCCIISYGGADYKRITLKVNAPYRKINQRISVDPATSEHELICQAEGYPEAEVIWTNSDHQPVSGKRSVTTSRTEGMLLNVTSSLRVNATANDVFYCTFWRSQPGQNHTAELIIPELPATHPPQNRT
T7 sequence (Q9NZQ7 other isoform, or with tags, fused parts or gaps limits assumed): as the sequence (Q9NZQ7 19-238 limits assumed) above, with A33T, A34S, S62N, R68Q, Q82R, F173L, T185A, T192I, H215L counted along it

B1: 1923Ab4 (antibody, V domains shown)
VH: QVQLVESGGGVVQPGRSLRLSCAASGFTFSNYGMHWVRQAPGKGLEWVAIIWYDGINKYYADSVKGRFTISRDNSKNTLYLQMNSLKAEDTAVYYCARDQDYDILTGYYKEDYFDFWGQGTLVTVSS
VL: SYELTQPPSVSVSPGQTARITCSGDALPKKYAYWYQQKSGQAPVLVIYEDSKRPSGIPERFSGSSSGTMATLTISGAQVEDEADYYCYSTDSSGNRVFGGGTKLTVL
notes: also called CD137 monospecific 1923Ab4; anti-CD137 1923Ab4
- EC50 [1]: 0.29 nM
- EC50 [2]: 0.22 nM
- binding result [3]: no binding
- Kd [4]: 7.18 nM
- koff [4]: 0.0219 s⁻¹
- kon [4]: 3.05e+06 M⁻¹ s⁻¹

B2: 1923Ab2 (antibody, V domains shown)
VH: QVQLVESGGGVVQPGRSLRLSCAASGFTFRNYGMHWVRQAPGKGLEWVAVIWFDGINKYYADSVKGRFTISRDNSENTLYLQMNSLRAEDTAVYYCARDRSSSPFDFWGQGTLVTVSS
VL: EIVMTQSPATLSLSPGERATLSCRASQNFSNNYLSWYQQTPGQAPRLLIYGASTRATGIPARFSGSGSGTDFTLTISSLQPEDFAVYYCQQDYNLFTFGPGTKVDIK
notes: Fully human variable regions from Trianni mice; Constant region as tested not clear: hybridoma-derived (mouse constant) or recombinant human IgG1 / IgG1 variant with human kappa; also called PD-L1 monospecific 1923Ab2; anti-PD-L1 antibody 1923Ab2
- IC50, PD-1/PD-L1 blockade luciferase reporter assay [5]: 0.9 nM
- EC50 [6]: 0.09 nM
- EC50 [7]: 0.08 nM
- binding result [8]: no binding

B3: 1923Ab6 (antibody, human IgG1, V domains shown)
VH: EVHLLESGGGLVQPGGSLRLSCAASGFTFSSYAMGWVRQAPGKGLEWVSIIGGGGGSTYYADSVKGRFTISRDNSKNTLYLQMNSLRAEDTAVYYCAKVGYSGTYGGWFDPWGQGTLVTVSS
VL: DIQMTQSPSSLSASIGDRVAITCRASQGISNYLAWFQQKPGKAPKSLIYAASSLQSGVPSKFSGSGSGTDFTLTISSLQPEDFATYYCQQYNSYPLTFGGGTKVEIK
notes: also called CD137 monospecific 1923Ab6
- EC50 [1]: 10.5 nM
- EC50 [2]: 4.23 nM
- EC50 [9]: 11 nM
- binding result [10]: no binding

B4: 1923Ab3 (antibody, V domains shown)
VH: QVQLVQSGAEVKKPGASVKVSCKASGYTFTSYDINWVRQATGQGLEWMGWMNPNSGITGYAQRFQGRVTMTRDTSISTAYMELSSLRSEDTAVYYCARHRWGKGYLDLWGRGTLVTVSS
VL: EIVMAQSPATLSLSPGERATLSCRASQSVSSSYLSWFQQKPGQAPRLLIYGASTRATGIPARFGGSGSGTDFTLTISSLQPEDFAVYYCQQDYNLPYTFGQGTKLEIK
notes: also called PD-L1 monospecific 1923Ab3; anti-PD-L1 antibody 1923Ab3
- IC50, PD-1/PD-L1 blockade luciferase reporter assay [5]: 0.43 nM
- EC50 [11]: 0.18 nM
- EC50 [12]: 0.08 nM
- EC50 [13]: 0.07 nM
- binding result [14]: no binding
- Kd [15]: 2.95 nM
- koff [15]: 0.0024 s⁻¹
- kon [15]: 814000 M⁻¹ s⁻¹

B5: 1923Ab5 (antibody, human IgG1, V domains shown)
VH: QVQLVESGGGVVQPGRSLRLSCAASGFTFSSYGMHWVRQAPGKGLEWVAVIWYDGSNEYYADSVKGRFTISRDNSKNTLYLQMNSLRAEDTAVYYCARERWQWLVLFDYWGQGTLVTVSS
VL: EIVLTQSPATLSLSPGERATLSCRASQTITSSYLSWYQQKPGQAPRLLIYGASTRATGIPARFSGSGSGTDFTLTISSLQPEDFALYFCQQDFNLPYTFGQGTKLEIK
notes: also called CD137 monospecific 1923Ab5
- EC50 [1]: 1.62 nM
- EC50 [2]: 2.77 nM
- EC50 [9]: 1.6 nM
- binding result [16]: no binding
